This is an account of results in patent US20210388087A1 (Chugai, published 2021).

Numbering of substitutions follows the chain as printed. Names may count otherwise.

First the molecules themselves.
T1: Human CD3eg linker (human)
T1 construct: Single chain: epsilon and gamma subunits of human CD3 joined by a 29-mer linker, Flag-tag at the C-terminus; also called recombinant human CD3
T1 chain: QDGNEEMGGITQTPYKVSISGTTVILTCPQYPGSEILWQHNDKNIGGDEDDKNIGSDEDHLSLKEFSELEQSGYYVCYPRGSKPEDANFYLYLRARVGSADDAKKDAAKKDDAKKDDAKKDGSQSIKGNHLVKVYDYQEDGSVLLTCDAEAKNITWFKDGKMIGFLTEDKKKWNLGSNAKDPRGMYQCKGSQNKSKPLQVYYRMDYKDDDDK

B1: H183/L072 VH G26A (antibody, name in Kabat numbering, V domains shown)
VH: QVQLVESGGGLVQPGRSLRLSCAASAFTFSNAWMHWVRQAPGKGLEWVAQIKDKGNAYAAYYAPSVKGRFTISRDDSKNSIYLQMNSLKTEDTAVYYCHYVHYASASTVLPAFGVDAWGQGTTVTVSS
VL: DIVMTQSPLSLPVTPGEPASISCQASQELVHMNRNTYLHWYQQKPGQAPRLLIYKVSNRFPGVPDRFSGSGSGTDFTLKISRVEAEDVGVYYCAQGTSVPFTFGQGTKLEIK
B2: H183/L072 VH A54T (antibody, name in Kabat numbering, V domains shown)
VH: B1 VH with A26G, A57T
VL: B1 VL
B3: H183/L072 VH A32P (antibody, name in Kabat numbering, V domains shown)
VH: B1 VH with A26G, A32P
VL: B1 VL
B4: H183/L072 VH A32Y (antibody, name in Kabat numbering, V domains shown)
VH: B1 VH with A26G, A32Y
VL: B1 VL
B5: H183/L072 VH A32E (antibody, name in Kabat numbering, V domains shown)
VH: B1 VH with A26G, A32E
VL: B1 VL
B6: H183/L072 VH A56F (antibody, name in Kabat numbering, V domains shown)
VH: B1 VH with A26G, A59F
VL: B1 VL
B7: H183/L072 VH A54Q (antibody, name in Kabat numbering, V domains shown)
VH: B1 VH with A26G, A57Q
VL: B1 VL
B8: H183/L072 VH A54G (antibody, name in Kabat numbering, V domains shown)
VH: B1 VH with A26G, A57G
VL: B1 VL
B9: H183/L072 VH A32T (antibody, name in Kabat numbering, V domains shown)
VH: B1 VH with A26G, A32T
VL: B1 VL
B10: H183/L072 VH A32L (antibody, name in Kabat numbering, V domains shown)
VH: B1 VH with A26G, A32L
VL: B1 VL
B11: H183/L072 VH A54E (antibody, name in Kabat numbering, V domains shown)
VH: B1 VH with A26G, A57E
VL: B1 VL
B12: H183/L072 VH A54S (antibody, name in Kabat numbering, V domains shown)
VH: B1 VH with A26G, A57S
VL: B1 VL
B13: H183/L072 VH A56D (antibody, name in Kabat numbering, V domains shown)
VH: B1 VH with A26G, A59D
VL: B1 VL
B14: H183/L072 VH A54P (antibody, name in Kabat numbering, V domains shown)
VH: B1 VH with A26G, A57P
VL: B1 VL
B15: H183/L072 VH A54W (antibody, name in Kabat numbering, V domains shown)
VH: B1 VH with A26G, A57W
VL: B1 VL
B16: H183/L072 VH A32W (antibody, name in Kabat numbering, V domains shown)
VH: B1 VH with A26G, A32W
VL: B1 VL
B17: H183/L072 VH A54K (antibody, name in Kabat numbering, V domains shown)
VH: B1 VH with A26G, A57K
VL: B1 VL
B18: H183/L072 VH A32Q (antibody, name in Kabat numbering, V domains shown)
VH: B1 VH with A26G, A32Q
VL: B1 VL
B19: H183/L072 VH A54N (antibody, name in Kabat numbering, V domains shown)
VH: B1 VH with A26G, A57N
VL: B1 VL
B20: H183/L072 VH A32M (antibody, name in Kabat numbering, V domains shown)
VH: B1 VH with A26G, A32M
VL: B1 VL
B21: H183/L072 VH A56H (antibody, name in Kabat numbering, V domains shown)
VH: B1 VH with A26G, A59H
VL: B1 VL
B22: H183/L072 VH A54I (antibody, name in Kabat numbering, V domains shown)
VH: B1 VH with A26G, A57I
VL: B1 VL
B23: H183/L072 VH A32F (antibody, name in Kabat numbering, V domains shown)
VH: B1 VH with A26G, A32F
VL: B1 VL
B24: H183/L072 VH A54V (antibody, name in Kabat numbering, V domains shown)
VH: B1 VH with A26G, A57V
VL: B1 VL
B25: H183/L072 VH A32I (antibody, name in Kabat numbering, V domains shown)
VH: B1 VH with A26G, A32I
VL: B1 VL
B26: H183/L072 VH A54Y (antibody, name in Kabat numbering, V domains shown)
VH: B1 VH with A26G, A57Y
VL: B1 VL
B27: H183/L072 VH A54M (antibody, name in Kabat numbering, V domains shown)
VH: B1 VH with A26G, A57M
VL: B1 VL
B28: H183/L072 VH A54D (antibody, name in Kabat numbering, V domains shown)
VH: B1 VH with A26G, A57D
VL: B1 VL
B29: H183/L072 VH A32H (antibody, name in Kabat numbering, V domains shown)
VH: B1 VH with A26G, A32H
VL: B1 VL
B30: H183/L072 VH A32D (antibody, name in Kabat numbering, V domains shown)
VH: B1 VH with A26G, A32D
VL: B1 VL
B31: H183/L072 VH A54F (antibody, name in Kabat numbering, V domains shown)
VH: B1 VH with A26G, A57F
VL: B1 VL
B32: H183/L072 VH A32R (antibody, name in Kabat numbering, V domains shown)
VH: B1 VH with A26G, A32R
VL: B1 VL
B33: H183/L072 VH A32V (antibody, name in Kabat numbering, V domains shown)
VH: B1 VH with A26G, A32V
VL: B1 VL
B34: H183/L072 VH A32K (antibody, name in Kabat numbering, V domains shown)
VH: B1 VH with A26G, A32K
VL: B1 VL
B35: H183/L072 VH A56G (antibody, name in Kabat numbering, V domains shown)
VH: B1 VH with A26G, A59G
VL: B1 VL
B36: H183/L072 VH A56E (antibody, name in Kabat numbering, V domains shown)
VH: B1 VH with A26G, A59E
VL: B1 VL
B37: H183/L072 VH A54H (antibody, name in Kabat numbering, V domains shown)
VH: B1 VH with A26G, A57H
VL: B1 VL
B38: H183/L072 VH A54R (antibody, name in Kabat numbering, V domains shown)
VH: B1 VH with A26G, A57R
VL: B1 VL
B39: H183/L072 VH A32S (antibody, name in Kabat numbering, V domains shown)
VH: B1 VH with A26G, A32S
VL: B1 VL
B40: H183/L072 VH A32N (antibody, name in Kabat numbering, V domains shown)
VH: B1 VH with A26G, A32N
VL: B1 VL
B41: H183/L072 VH A54L (antibody, name in Kabat numbering, V domains shown)
VH: B1 VH with A26G, A57L
VL: B1 VL
B42: H183/L072 VH A32G (antibody, name in Kabat numbering, V domains shown)
VH: B1 VH with A26G, A32G
VL: B1 VL

The target of the test is T1, Human CD3eg linker. The test can be described thus: Biacore SPR, vs template H183/L072. A general note: Surface plasmon resonance follows binding to a sensor surface in real time, without labels.
Consider B1, for which the “fold change of affinity” value worked out at 0.5 fold.
For the molecule B2, the “fold change of affinity” value came out at 0.9 fold.
To B3 belongs 0 fold.
Under B4 stands 0 fold; under B5, 0.1 fold.
For B6, the “fold change of affinity” value came out at 0.6 fold.
Consider B7, for which the “fold change of affinity” value was 1.1 fold.
Under B8 stands 1 fold.
To B9 belongs 0 fold; to B10, 0 fold; to B11, 1 fold.
B12: the “fold change of affinity” value was found to be 1 fold.
To B13 belongs 0.5 fold; to B14, 0 fold; to B15, 1.1 fold.
Under B16 stands 0.1 fold; under B17, 1.1 fold; under B18, 0.4 fold.
To B19 belongs 1.1 fold; to B20, 0 fold.
With B21, the “fold change of affinity” value is 0.9 fold.
For B22, the “fold change of affinity” value came out at 0.7 fold.
For the molecule B23, the “fold change of affinity” value is 0 fold.
As to B24, the “fold change of affinity” value came to 0.7 fold.
To B25 belongs 0.1 fold; to B26, 1 fold.
For the molecule B27, the “fold change of affinity” value is 1 fold.
With B28, the “fold change of affinity” value is 0.9 fold.
As for B29, the “fold change of affinity” value stood at 0.5 fold.
As to B30, the “fold change of affinity” value was determined as 0 fold.
To B31 belongs 1.2 fold; to B32, 0.6 fold.
Under B33 stands 0.9 fold.
Consider B34, for which the “fold change of affinity” value came out at 0.5 fold.
Under B35 stands 0.7 fold.
To B36 belongs 0.6 fold; to B37, 1.1 fold; to B38, 1.1 fold.
To B39 belongs 0.4 fold; to B40, 0.5 fold.
With B41, the “fold change of affinity” value turned out to be 1.1 fold.
In the case of B42, the “fold change of affinity” value was 0.3 fold.
